Earlier results in patent publication US12186373B2, “Compositions in the form of an injectable aqueous solution comprising amylin, an amylin agonist receptor or an amylin analogue and a co-polyamino acid” (ADOCIA, priority 2017, dated 2025).

Details: acidic pH

## amylin: peptide of 37 amino acids which is stored and co-secreted with insulin (KCNTATCATQRLANFLVHSSNNFGAILSSTNVGSNTY; Islet amyloid polypeptide; UniProt P10997 34-70, looked up)
  time for which amylin is stable: about fifteen minutes
